Results published in PMC2592828.

Legend:
Test in all cases: far-Western, overlay or dot blot
[1] = biological target: recombinant IC-2C T89D mutant
[2] = biological target: recombinant IC-2C T89E mutant
[3] = biological target: p150^Glued subunit of dynactin (endogenous, band in total extracts) (UniProt Q14203)
[4] = biological target: zw10 (endogenous, ~90-kD band) (UniProt O43264)
Chain of UniProt O43264 (O43264 whole entry): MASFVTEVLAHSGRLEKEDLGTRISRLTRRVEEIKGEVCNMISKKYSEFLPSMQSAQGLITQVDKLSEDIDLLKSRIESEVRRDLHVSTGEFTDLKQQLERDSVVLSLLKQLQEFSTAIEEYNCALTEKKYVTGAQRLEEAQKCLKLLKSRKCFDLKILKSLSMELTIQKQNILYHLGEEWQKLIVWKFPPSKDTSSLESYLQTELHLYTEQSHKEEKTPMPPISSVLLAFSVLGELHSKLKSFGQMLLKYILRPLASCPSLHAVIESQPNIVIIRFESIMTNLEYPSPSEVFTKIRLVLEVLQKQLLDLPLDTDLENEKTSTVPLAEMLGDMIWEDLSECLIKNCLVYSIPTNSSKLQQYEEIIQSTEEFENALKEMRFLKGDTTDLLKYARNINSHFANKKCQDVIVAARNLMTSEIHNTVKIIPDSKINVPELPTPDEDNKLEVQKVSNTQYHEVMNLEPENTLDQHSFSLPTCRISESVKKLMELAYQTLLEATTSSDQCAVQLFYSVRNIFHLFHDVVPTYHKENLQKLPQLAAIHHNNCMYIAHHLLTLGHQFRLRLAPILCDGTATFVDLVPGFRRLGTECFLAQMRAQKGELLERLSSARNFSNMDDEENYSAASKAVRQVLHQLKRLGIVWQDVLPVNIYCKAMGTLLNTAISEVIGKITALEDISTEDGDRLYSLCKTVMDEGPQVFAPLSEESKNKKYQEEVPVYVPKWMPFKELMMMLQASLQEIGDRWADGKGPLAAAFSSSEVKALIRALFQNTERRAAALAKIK

Chain of UniProt Q14203 (Q14203 whole entry): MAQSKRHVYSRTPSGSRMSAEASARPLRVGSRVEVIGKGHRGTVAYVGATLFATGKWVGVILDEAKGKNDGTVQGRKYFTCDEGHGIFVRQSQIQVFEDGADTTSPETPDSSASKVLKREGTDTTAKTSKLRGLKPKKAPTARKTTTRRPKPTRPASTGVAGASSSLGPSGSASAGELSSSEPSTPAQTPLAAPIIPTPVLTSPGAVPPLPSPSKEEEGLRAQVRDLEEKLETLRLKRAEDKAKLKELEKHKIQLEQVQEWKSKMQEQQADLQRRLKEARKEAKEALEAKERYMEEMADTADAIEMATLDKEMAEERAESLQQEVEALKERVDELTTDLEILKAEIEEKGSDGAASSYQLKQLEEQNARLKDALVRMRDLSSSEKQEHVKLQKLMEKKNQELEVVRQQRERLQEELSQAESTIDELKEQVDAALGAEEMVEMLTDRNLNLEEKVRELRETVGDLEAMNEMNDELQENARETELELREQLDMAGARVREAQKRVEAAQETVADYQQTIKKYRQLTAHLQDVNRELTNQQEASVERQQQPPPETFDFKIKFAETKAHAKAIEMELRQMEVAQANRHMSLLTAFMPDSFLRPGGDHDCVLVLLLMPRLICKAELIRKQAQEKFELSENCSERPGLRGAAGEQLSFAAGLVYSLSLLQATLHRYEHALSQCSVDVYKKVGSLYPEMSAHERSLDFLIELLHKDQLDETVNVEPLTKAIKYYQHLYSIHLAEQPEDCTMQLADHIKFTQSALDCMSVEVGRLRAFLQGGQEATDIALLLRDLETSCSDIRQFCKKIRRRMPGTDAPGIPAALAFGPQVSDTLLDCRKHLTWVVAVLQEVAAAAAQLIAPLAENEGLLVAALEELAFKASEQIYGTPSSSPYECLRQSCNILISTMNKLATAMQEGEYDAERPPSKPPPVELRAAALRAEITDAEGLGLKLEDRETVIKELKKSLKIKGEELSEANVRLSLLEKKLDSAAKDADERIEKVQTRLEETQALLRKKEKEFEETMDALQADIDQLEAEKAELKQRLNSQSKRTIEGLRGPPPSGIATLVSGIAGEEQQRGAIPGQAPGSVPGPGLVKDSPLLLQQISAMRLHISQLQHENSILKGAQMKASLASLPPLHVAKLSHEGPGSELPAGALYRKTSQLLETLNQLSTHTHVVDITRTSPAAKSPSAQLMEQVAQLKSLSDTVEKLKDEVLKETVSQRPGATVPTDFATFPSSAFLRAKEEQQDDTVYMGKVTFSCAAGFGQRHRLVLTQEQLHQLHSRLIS

Row | fold reduction in binding against the wild type [1] [fold] | fold reduction in binding against the wild type [2] [fold] | overlay signal as percent of the endogenous IC band [3] [%] | overlay signal as percent of the endogenous IC band [4] [%] | percent increase in binding against dephospho-ICs [4] [%] | Substance
1 | 4 | 4 | – | – | – | recombinant p150^Glued fragment spanning residues 1-811 (from UniProt P28023 1-811) (domain or fragment)
2 | – | – | 83 | 31.1 | – | recombinant IC-2C fragment spanning residues 1-284 (dephosphorylated ICs) (domain or fragment)
3 | – | – | 55.4 | 96.2 | 100 | recombinant IC-2C fragment (residues 1-284) phosphorylated in vitro (phospho-ICs) (domain or fragment)
